According to PMC8112011, “Adaptive laboratory evolution accelerated glutarate production by Corynebacterium glutamicum” (Microbial Cell Factories, 2021):

Substrate: NC(=O)CC[C@H](N)C(=O)O
Test: cells, lysate or membranes
Type: biochemical, Corynebacterium glutamicum
Settings: 1.5 mM NADPH, 35 mM 2-oxoglutarate, 100 mM phosphate pH 7.0, 30 °C

B1: GltBD (GOGAT, L-glutamic acid-2-oxoglutarate aminotransferase) (Corynebacterium glutamicum ATCC 13032) (protein)
chain: CGVAFIADIHGRPSRSIVDRALEALRNIDHRGAAGAEKNTGDGAGILMQIPDGFYREVSGIELPEAGEYATGIAFLPRGRMAMMDAQKEIERIAKQEGADVLGWRMVPFDSRDLGSMAEEAMPSFAQIFLTVPGKSGEDLDRVMFFIRKRCERELGTTNGRDTVYFPSLSSRTIIYKGMLTTLQLEGFFEDLGDARLESAIAIVHSRFSTNTFPSWPLAHPYRFVAHNGEINTVRGNENWMRAREALIKNDKLGNLSSVLPICTPEGSDTARFDEALELLHLGGYSLPHAVAMMIPQAWEHNKTLSPELRDFYEYHSCLMEPWDGPAALAFTDGRFVGAVLDRNGLRPGRITITDSGLVVMASESGVLDLREESVVKRTRVQPGRMFLVDTAEGRIVEDEEIKQKLSEAQPYGEWIRDNFVHLDRLPQTRYNYMAHSRAVLRQRVFGITEEDVDLLLLPMARQGAEAIGSMGSDTPIAALSQRPRMLYDFFAQRFAQVTNPPLDSIREKPVTSMFTLLGAQSDVLNPGPDAARRIRLESPIIDNHELATLINANAHGEWDSFGAAVISGLYPVAHHGAGMKAAIARVRREVSEAIRNGKTLIVLSDRESDERMAPIPALLLTSAVHQYLVQQRTRTQCSLVVESGDAREVHHLAMLIGFGADAINPYMAFETIDELRMKGQLGDLSLDEASRNYIKAATTGVLKVMSKMGIATVSSYRGAQLADVTGLHQDLLDNYFGGIASPISGIGLDEVAADVEARHRSAFLPRPEEHAHRELDLGGEYKWRREGEYHLFNPETIFKLQHATRSGSYEIFKDYTRKVDDQSTRLGTIRGLFEFSTDRKPISVSEVEPVSEIVKRFSTGAMSYGSISAEAHEVLAIAMNRLGGMSNSGEGGEDARRFDVEPNGDWKRSAIKQVASGRFGVTSHYLNNCTDIQIKMAQGAKPGEGGQLPPNKVYPWVAEVRITTPGVGLISPPPHHDIYSIEDLAQLIHDLKNANPRARIHVKLVAEQGVGTVAAGVSKAHADVVLISGHDGGTGASPLTSLKHAGGPWELGLAETQQTLLLNGLRDRIRVQCDGQLKTGRDVVIAALLGAEEFGFATAPLVVEGCIMMRVCHLDTCPVGIATQNPDLRSKFTGKAEHVVNFFTFIAQEVREYLAQLGFRSIDEAVGQAQVLRKRSGIPADSRAAHLDLSPIFHRPETPHFPTQDVRCTKTQEHSLEKALDNAFIDKASDTITRAAAGVETSIVIDSSISNVNRSVGTMLGSAVSRVAGAQGLPDGTITLNLQGCAGNSFGAFIPRGITINLTGDANDFVGKGLSGGKIVIKPSAQAPKQLKNNPNIIAGNVLGYGATSGELFIRGQVGERFCVRNSGATAVVEGIGNHGCEYMTGGRVLVLGPVGENFGAGMSGGIAYLANSPDLNQKINGELVDVVPLSADDLTWADELIARHRELTGSETKLRAQDLVKIMPRDFQKVLNIIETAHAEGQDPAIKIMEAVS
notes: full-length gltBD on plasmid pEKEx3, overexpressed in C. glutamicum GRLys1ΔgltB (chromosomal gltB deleted); untagged; crude extract; with Glutamate synthase [NADPH] small chain
In the case of B1, the Km is reported as 250 ± 30 µM.

B2: GltBD (GOGAT, L-glutamic acid-2-oxoglutarate aminotransferase) (Corynebacterium glutamicum ATCC 13032; E686Q) (protein)
chain: CGVAFIADIHGRPSRSIVDRALEALRNIDHRGAAGAEKNTGDGAGILMQIPDGFYREVSGIELPEAGEYATGIAFLPRGRMAMMDAQKEIERIAKQEGADVLGWRMVPFDSRDLGSMAEEAMPSFAQIFLTVPGKSGEDLDRVMFFIRKRCERELGTTNGRDTVYFPSLSSRTIIYKGMLTTLQLEGFFEDLGDARLESAIAIVHSRFSTNTFPSWPLAHPYRFVAHNGEINTVRGNENWMRAREALIKNDKLGNLSSVLPICTPEGSDTARFDEALELLHLGGYSLPHAVAMMIPQAWEHNKTLSPELRDFYEYHSCLMEPWDGPAALAFTDGRFVGAVLDRNGLRPGRITITDSGLVVMASESGVLDLREESVVKRTRVQPGRMFLVDTAEGRIVEDEEIKQKLSEAQPYGEWIRDNFVHLDRLPQTRYNYMAHSRAVLRQRVFGITEEDVDLLLLPMARQGAEAIGSMGSDTPIAALSQRPRMLYDFFAQRFAQVTNPPLDSIREKPVTSMFTLLGAQSDVLNPGPDAARRIRLESPIIDNHELATLINANAHGEWDSFGAAVISGLYPVAHHGAGMKAAIARVRREVSEAIRNGKTLIVLSDRESDERMAPIPALLLTSAVHQYLVQQRTRTQCSLVVESGDAREVHHLAMLIGFGADAINPYMAFQTIDELRMKGQLGDLSLDEASRNYIKAATTGVLKVMSKMGIATVSSYRGAQLADVTGLHQDLLDNYFGGIASPISGIGLDEVAADVEARHRSAFLPRPEEHAHRELDLGGEYKWRREGEYHLFNPETIFKLQHATRSGSYEIFKDYTRKVDDQSTRLGTIRGLFEFSTDRKPISVSEVEPVSEIVKRFSTGAMSYGSISAEAHEVLAIAMNRLGGMSNSGEGGEDARRFDVEPNGDWKRSAIKQVASGRFGVTSHYLNNCTDIQIKMAQGAKPGEGGQLPPNKVYPWVAEVRITTPGVGLISPPPHHDIYSIEDLAQLIHDLKNANPRARIHVKLVAEQGVGTVAAGVSKAHADVVLISGHDGGTGASPLTSLKHAGGPWELGLAETQQTLLLNGLRDRIRVQCDGQLKTGRDVVIAALLGAEEFGFATAPLVVEGCIMMRVCHLDTCPVGIATQNPDLRSKFTGKAEHVVNFFTFIAQEVREYLAQLGFRSIDEAVGQAQVLRKRSGIPADSRAAHLDLSPIFHRPETPHFPTQDVRCTKTQEHSLEKALDNAFIDKASDTITRAAAGVETSIVIDSSISNVNRSVGTMLGSAVSRVAGAQGLPDGTITLNLQGCAGNSFGAFIPRGITINLTGDANDFVGKGLSGGKIVIKPSAQAPKQLKNNPNIIAGNVLGYGATSGELFIRGQVGERFCVRNSGATAVVEGIGNHGCEYMTGGRVLVLGPVGENFGAGMSGGIAYLANSPDLNQKINGELVDVVPLSADDLTWADELIARHRELTGSETKLRAQDLVKIMPRDFQKVLNIIETAHAEGQDPAIKIMEAVS
notes: as for B1
B2 gave a Km of 520 ± 40 µM.
